Columns and labels:
[1] = biological target: T1, G5_(845-1508)-R1016C-TAP (human, UniProt Q8TEQ6 845-1508, R1016C); assay: affinity purification with mass spectrometry; G5_(845-1508)-TAP baits expressed in HEK293; TAP purification, in-gel trypsin digestion, LC-MS/MS, PEAKS; two biological replicates; at least two distinct peptides; conditions: partners not purified
T1 construct: Vector pcDNA3-CTAP; source: HEK293, transfected, in soluble cell extract; purified by TAP
T1 sequence (looked up): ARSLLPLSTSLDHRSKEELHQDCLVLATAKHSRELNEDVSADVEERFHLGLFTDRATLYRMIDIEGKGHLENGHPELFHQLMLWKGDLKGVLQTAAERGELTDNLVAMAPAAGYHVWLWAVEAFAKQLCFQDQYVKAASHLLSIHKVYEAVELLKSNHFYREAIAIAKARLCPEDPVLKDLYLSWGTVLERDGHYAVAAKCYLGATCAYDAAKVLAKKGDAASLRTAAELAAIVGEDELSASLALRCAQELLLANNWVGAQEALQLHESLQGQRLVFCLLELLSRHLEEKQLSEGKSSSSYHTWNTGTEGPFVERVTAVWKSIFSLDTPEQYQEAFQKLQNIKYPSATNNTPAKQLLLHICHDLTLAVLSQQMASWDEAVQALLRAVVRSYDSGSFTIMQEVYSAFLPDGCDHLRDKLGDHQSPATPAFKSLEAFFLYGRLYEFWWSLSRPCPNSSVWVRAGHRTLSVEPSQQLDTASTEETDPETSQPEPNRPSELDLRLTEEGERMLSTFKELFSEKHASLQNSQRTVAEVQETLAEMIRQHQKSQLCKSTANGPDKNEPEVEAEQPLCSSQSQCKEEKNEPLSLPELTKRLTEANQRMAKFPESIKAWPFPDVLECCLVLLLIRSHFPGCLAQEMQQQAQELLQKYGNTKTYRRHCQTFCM

[2] = biological target: T2, G5_(845-1508)-D1019E-TAP (human, UniProt Q8TEQ6 845-1508, D1019E); assay: as above; conditions: partners not purified
T2 construct: Vector pcDNA3-CTAP; source: HEK293, transfected, in soluble cell extract; purified by TAP
T2 sequence (looked up): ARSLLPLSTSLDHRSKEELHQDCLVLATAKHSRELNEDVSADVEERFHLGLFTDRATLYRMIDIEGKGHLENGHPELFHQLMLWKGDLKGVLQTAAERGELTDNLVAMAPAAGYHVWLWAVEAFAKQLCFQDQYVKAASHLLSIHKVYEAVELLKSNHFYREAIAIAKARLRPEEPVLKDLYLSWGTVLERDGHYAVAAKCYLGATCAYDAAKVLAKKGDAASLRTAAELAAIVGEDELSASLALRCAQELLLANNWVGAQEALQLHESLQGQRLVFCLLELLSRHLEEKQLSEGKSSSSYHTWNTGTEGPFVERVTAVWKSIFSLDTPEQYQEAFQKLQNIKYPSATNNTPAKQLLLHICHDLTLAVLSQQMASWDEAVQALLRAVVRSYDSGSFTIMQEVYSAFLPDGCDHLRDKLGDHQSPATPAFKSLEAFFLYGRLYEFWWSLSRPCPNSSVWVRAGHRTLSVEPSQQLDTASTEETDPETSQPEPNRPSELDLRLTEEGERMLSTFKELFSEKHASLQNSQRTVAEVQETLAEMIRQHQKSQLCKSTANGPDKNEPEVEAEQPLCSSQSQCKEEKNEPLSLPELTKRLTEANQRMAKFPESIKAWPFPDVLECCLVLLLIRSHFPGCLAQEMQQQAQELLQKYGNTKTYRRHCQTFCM

[3] = biological target: T3, G5_(845-1508)-L1367P-TAP (human, UniProt Q8TEQ6 845-1508, L1367P); assay: as above; conditions: partners not purified
T3 construct: Vector pcDNA3-CTAP; Expressed at lower levels than the WT; also called RBS1 variant L1367P; source: HEK293, transfected, in soluble cell extract; purified by TAP
T3 sequence (looked up): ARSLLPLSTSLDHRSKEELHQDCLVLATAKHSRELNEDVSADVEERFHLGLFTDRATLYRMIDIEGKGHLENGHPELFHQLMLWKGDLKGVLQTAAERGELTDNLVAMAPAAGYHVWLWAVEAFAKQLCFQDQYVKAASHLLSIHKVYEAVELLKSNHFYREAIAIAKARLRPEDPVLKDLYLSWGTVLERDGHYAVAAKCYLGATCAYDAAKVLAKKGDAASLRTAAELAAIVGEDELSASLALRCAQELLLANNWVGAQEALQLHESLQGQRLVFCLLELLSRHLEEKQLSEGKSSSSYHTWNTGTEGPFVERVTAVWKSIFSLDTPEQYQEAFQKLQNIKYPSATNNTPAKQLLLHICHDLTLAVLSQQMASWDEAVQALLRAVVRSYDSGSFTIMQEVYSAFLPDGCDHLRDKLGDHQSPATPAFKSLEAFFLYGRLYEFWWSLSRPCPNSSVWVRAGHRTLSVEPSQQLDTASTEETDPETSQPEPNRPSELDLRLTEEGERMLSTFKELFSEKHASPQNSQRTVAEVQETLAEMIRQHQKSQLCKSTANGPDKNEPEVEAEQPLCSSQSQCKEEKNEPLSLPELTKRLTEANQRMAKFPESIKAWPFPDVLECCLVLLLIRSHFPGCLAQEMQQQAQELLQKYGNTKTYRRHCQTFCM

[4] = biological target: T1, G5_(845-1508)-R1016C-TAP; assay: co-IP; G5_(845-1508)-TAP baits expressed 24 h in HEK293; complexes purified by TAP (IgG Sepharose, TEV protease, calmodulin); endogenous Gemin5 and bait detected by WB with anti-Gemin5; Gemin5 intensity normalised to the purified bait; conditions: partners not purified
[5] = biological target: T2, G5_(845-1508)-D1019E-TAP; assay: as above; conditions: partners not purified
[6] = biological target: T4, G5_(845-1508)-A951E-TAP (human), Q8TEQ6; assay: as above; conditions: remark: other sources report otherwise
T4 chain: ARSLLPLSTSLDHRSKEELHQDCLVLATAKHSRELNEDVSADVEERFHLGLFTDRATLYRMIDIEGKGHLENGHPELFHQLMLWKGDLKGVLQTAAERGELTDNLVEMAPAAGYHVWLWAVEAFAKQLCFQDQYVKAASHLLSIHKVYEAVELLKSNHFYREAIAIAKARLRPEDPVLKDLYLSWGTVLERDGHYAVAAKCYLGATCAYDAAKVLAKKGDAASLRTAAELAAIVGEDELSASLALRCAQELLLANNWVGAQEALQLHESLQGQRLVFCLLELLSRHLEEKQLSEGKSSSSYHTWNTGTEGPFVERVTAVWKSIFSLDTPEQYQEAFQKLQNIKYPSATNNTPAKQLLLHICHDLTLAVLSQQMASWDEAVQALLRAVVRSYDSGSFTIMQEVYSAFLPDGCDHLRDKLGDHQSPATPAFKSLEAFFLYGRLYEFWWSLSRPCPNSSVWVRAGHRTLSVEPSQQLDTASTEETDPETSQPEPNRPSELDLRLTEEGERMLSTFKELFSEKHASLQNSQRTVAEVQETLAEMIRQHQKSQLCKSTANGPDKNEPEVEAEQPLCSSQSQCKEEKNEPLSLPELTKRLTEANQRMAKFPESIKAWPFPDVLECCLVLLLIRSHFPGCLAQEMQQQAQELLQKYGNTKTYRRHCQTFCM

B1: endogenous Gemin5 protein (natural protein, human (endogenous in HEK293), UniProt Q8TEQ6 1-1508, looked up)
chain: MGQEPRTLPPSPNWYCARCSDAVPGGLFGFAARTSVFLVRVGPGAGESPGTPPFRVIGELVGHTERVSGFTFSHHPGQYNLCATSSDDGTVKIWDVETKTVVTEHALHQHTISTLHWSPRVKDLIVSGDEKGVVFCYWFNRNDSQHLFIEPRTIFCLTCSPHHEDLVAIGYKDGIVVIIDISKKGEVIHRLRGHDDEIHSIAWCPLPGEDCLSINQEETSEEAEITNGNAVAQAPVTKGCYLATGSKDQTIRIWSCSRGRGVMILKLPFLKRRGGGIDPTVKERLWLTLHWPSNQPTQLVSSCFGGELLQWDLTQSWRRKYTLFSASSEGQNHSRIVFNLCPLQTEDDKQLLLSTSMDRDVKCWDIATLECSWTLPSLGGFAYSLAFSSVDIGSLAIGVGDGMIRVWNTLSIKNNYDVKNFWQGVKSKVTALCWHPTKEGCLAFGTDDGKVGLYDTYSNKPPQISSTYHKKTVYTLAWGPPVPPMSLGGEGDRPSLALYSCGGEGIVLQHNPWKLSGEAFDINKLIRDTNSIKYKLPVHTEISWKADGKIMALGNEDGSIEIFQIPNLKLICTIQQHHKLVNTISWHHEHGSQPELSYLMASGSNNAVIYVHNLKTVIESSPESPVTITEPYRTLSGHTAKITSVAWSPHHDGRLVSASYDGTAQVWDALREEPLCNFRGHRGRLLCVAWSPLDPDCIYSGADDFCVHKWLTSMQDHSRPPQGKKSIELEKKRLSQPKAKPKKKKKPTLRTPVKLESIDGNEEESMKENSGPVENGVSDQEGEEQAREPELPCGLAPAVSREPVICTPVSSGFEKSKVTINNKVILLKKEPPKEKPETLIKKRKARSLLPLSTSLDHRSKEELHQDCLVLATAKHSRELNEDVSADVEERFHLGLFTDRATLYRMIDIEGKGHLENGHPELFHQLMLWKGDLKGVLQTAAERGELTDNLVAMAPAAGYHVWLWAVEAFAKQLCFQDQYVKAASHLLSIHKVYEAVELLKSNHFYREAIAIAKARLRPEDPVLKDLYLSWGTVLERDGHYAVAAKCYLGATCAYDAAKVLAKKGDAASLRTAAELAAIVGEDELSASLALRCAQELLLANNWVGAQEALQLHESLQGQRLVFCLLELLSRHLEEKQLSEGKSSSSYHTWNTGTEGPFVERVTAVWKSIFSLDTPEQYQEAFQKLQNIKYPSATNNTPAKQLLLHICHDLTLAVLSQQMASWDEAVQALLRAVVRSYDSGSFTIMQEVYSAFLPDGCDHLRDKLGDHQSPATPAFKSLEAFFLYGRLYEFWWSLSRPCPNSSVWVRAGHRTLSVEPSQQLDTASTEETDPETSQPEPNRPSELDLRLTEEGERMLSTFKELFSEKHASLQNSQRTVAEVQETLAEMIRQHQKSQLCKSTANGPDKNEPEVEAEQPLCSSQSQCKEEKNEPLSLPELTKRLTEANQRMAKFPESIKAWPFPDVLECCLVLLLIRSHFPGCLAQEMQQQAQELLQKYGNTKTYRRHCQTFCM
notes: Gemin5, human, full-length endogenous protein of HEK293 cells; also called full-length Gemin5; source: endogenous, HEK293 soluble cell extract
- ratio of peptide reads of region 1-844 to region 845-1508, relative to G5_(845-1508)-WT [1]: 0.77
- ratio of peptide reads of region 1-844 to region 845-1508, relative to G5_(845-1508)-WT [2]: 0.56
- ratio of peptide reads of region 1-844 to region 845-1508, relative to G5_(845-1508)-WT [3]: 0.9
- co-IP intensity relative to the WT protein [4]: 58%
- co-IP intensity relative to the WT protein [5]: 62%
- fold by which the recruitment by WT exceeds that by this mutant [6]: 10 fold
